Article PMC11528232 (Cell Reports Medicine, 2024)

Legend:
FcγRIIIA_(V158) = test: SPR
FcγRI = FcγRI (UniProt P12314); test: SPR
FcγRIIA_(H131) = FcγRIIA_(H131) (UniProt P12318); test: SPR
FcγRIIIA_(F158) = FcγRIIIA_(F158) (UniProt P08637); test: SPR
FcRn = FcRn (UniProt P55899); test: SPR
human Claudin18.2 = human Claudin18.2 (Homo sapiens, UniProt P56856-2); test: flow cytometry on cells

Sequence of FcγRIIA_(H131) (P12318 34-317): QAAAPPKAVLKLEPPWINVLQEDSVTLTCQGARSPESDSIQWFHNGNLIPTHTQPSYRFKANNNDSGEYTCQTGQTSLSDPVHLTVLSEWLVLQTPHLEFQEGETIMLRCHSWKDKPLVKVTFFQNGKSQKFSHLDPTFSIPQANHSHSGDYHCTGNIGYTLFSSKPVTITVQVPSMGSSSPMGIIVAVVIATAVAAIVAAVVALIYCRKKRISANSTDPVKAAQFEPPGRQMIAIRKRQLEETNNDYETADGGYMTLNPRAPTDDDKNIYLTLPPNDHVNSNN
Sequence of FcγRIIIA_(V158) (P08637 17-208): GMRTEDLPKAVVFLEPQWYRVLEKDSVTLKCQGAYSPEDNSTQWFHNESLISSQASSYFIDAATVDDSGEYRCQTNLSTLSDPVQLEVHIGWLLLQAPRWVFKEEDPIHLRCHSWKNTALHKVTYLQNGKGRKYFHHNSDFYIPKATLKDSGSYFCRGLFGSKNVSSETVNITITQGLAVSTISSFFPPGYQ
Sequence of FcγRIIIA_(F158) (P08637 17-254): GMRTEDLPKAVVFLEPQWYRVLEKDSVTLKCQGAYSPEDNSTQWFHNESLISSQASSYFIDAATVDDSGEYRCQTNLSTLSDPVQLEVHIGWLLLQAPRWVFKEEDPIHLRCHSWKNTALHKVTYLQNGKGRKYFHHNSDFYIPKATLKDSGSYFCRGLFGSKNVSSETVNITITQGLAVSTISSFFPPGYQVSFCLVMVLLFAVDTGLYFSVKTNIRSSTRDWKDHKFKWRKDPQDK
Sequence of FcγRI (P12314 16-374): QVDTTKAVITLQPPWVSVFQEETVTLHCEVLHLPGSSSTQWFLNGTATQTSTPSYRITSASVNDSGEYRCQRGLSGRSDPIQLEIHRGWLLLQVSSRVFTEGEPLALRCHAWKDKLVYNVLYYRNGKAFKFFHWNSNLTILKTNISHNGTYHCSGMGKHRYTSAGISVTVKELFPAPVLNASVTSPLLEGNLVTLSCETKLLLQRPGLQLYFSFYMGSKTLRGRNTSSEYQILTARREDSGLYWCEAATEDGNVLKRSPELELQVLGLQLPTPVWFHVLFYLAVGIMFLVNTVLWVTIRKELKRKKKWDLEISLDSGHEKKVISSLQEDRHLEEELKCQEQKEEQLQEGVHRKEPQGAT

Kd (FcγRIIIA_(V158)) [µM] | Kd (FcγRI) [µM] | Kd (FcγRIIA_(H131)) [µM] | Kd (FcγRIIIA_(F158)) [µM] | Kd (FcRn) [µM] | EC50 (human Claudin18.2) [µM] | Molecule
0.0789 | 0.00723 | 2.77 | 0.33 | 1.53 |  | CM311 (antibody)
0.126 | 0.00595 | 6.29 | 0.49 | 1.73 |  | CMG901 (antibody)
 |  |  |  |  | 0.0022 | Zolbetuximab analog (antibody, V domains shown) VH: QVQLQQPGAELVRPGASVKLSCKASGYTFTSYWINWVKQRPGQGLEWIGNIYPSDSYTNYNQKFKDKATLTVDKSSSTAYMQLSSPTSEDSAVYYCTRSWRGNSFDYWGQGTTLTVSS VL: DIVMTQSPSSLTVTAGEKVTMSCKSSQSLLNSGNQKNYLTWYQQKPGQPPKLLIYWASTRESGVPDRFTGSGSGTDFTLTISSVQAEDLAVYYCQNDYSYPFTFGSGTKLEIK
